Source: patent publication US20210309718A1 (THERACHON, published 2021)

B1: human FGF21 (ligand)
chain: HPIPDSSPLLQFGGQVRQRYLYTDDAQQTEAHLEIREDGTVGGAADQSPESLLQLKALKPGVIQILGVKTSRFLCQRPDGALYGSLHFDPEACSFRELLLEDGYNVYQSEAHGLPLHLPGNKSPHRDPAPRGPARFLPLPGLPPALPEPPGILAPQPPDVGSSDPLSMVGPSQGRSPSYAS
notes: also called hFGF21; fibroblast growth factor 21
B2: sFGFR3_Del4-D3 (receptor)
chain: ESLGTEQRVVGRAAEVPGPEPGQQEQLVFGSGDAVELSCPPPGGGPMGPTVWVKDGTGLVPSERVLVGPQRLQVLNASHEDSGAYSCRQRLTQRVLCHFSVRVTDAPSSGDDEDGEDEAEDTGVDTGAPYWTRPERMDKKLLAVPAANTVRFRCPAAGNPTPSISWLKNGREFRGEHRIGGIKLRHQQWSLVMESVVPSDRGNYTCVVENKFGSIRQTYTLDVLERSPHRPILQAGLPANQTAVLGSDVEFHCKVYSDAQPHIQWLKHVEVNGSKVGPDGTPYVTVLKTAGANTTDKELEVLSLHNVTFEDAGEYTCLAGNSIGFSHHSAWLVVLPVSLESNASMSSNT
notes: Secreted form without signal peptide; also called sFGFR3_Del4 with extended Ig-like C2-type domain 3
B3: human FGF18 (ligand)
chain: EENVDFRIHVENQTRARDDVSRKQLRLYQLYSRTSGKHIQVLGRRISARGEDGDKYAQLLVETDTFGSQVRIKGKETEFYLCMNRKGKLVGKPDGTSKECVFIEKVLENNYTALMSAKYSGWYVGFTKKGRPRKGPKTRENQQDVHFMKRYPKGQPELQKPFKYTTVTKRSRRIRPTHPA
notes: also called hFGF18; fibroblast growth factor 18

Key:
sFGFR3_Del4-D3 [1] = target: B2; test: SPR (Biacore T200), immobilised sFGFR3_Del4-D3, FGF as analyte, 2:1 (conformational change) model, kd1
sFGFR3_Del4-D3 [2] = target: B2; test: SPR (Biacore T200), immobilised sFGFR3_Del4-D3, FGF as analyte, 2:1 (conformational change) model, ka1
sFGFR3_Del4-D3 [3] = target: B2; test: SPR (Biacore T200), immobilised sFGFR3_Del4-D3, kinetic fit, 2:1 model
sFGFR3_Del4-D3 [4] = target: B2; test: SPR (Biacore T200), immobilised sFGFR3_Del4-D3, FGF as analyte, 2:1 (conformational change) model, kd2
human FGF9 [5] = target: T1, human FGF9 (human, UniProt P31371 4-208); test: SPR (Biacore T200), immobilised sFGFR3_Del4-D3, FGF as analyte, 2:1 (conformational change) model, kd1
human FGF9 [6] = target: T1, human FGF9; test: SPR (Biacore T200), immobilised sFGFR3_Del4-D3, FGF as analyte, 2:1 (conformational change) model, ka1
human FGF9 [7] = target: T1, human FGF9; test: SPR (Biacore T200), immobilised sFGFR3_Del4-D3, kinetic fit, 2:1 model
human FGF9 [8] = target: T1, human FGF9; test: SPR (Biacore T200), immobilised sFGFR3_Del4-D3, steady state
sFGFR3_Del4-D3 [9] = target: B2; test: SPR (Biacore T200), immobilised sFGFR3_Del4-D3, FGF as analyte, 1:1 model, ka1
sFGFR3_Del4-D3 [10] = target: B2; test: SPR (Biacore T200), immobilised sFGFR3_Del4-D3, kinetic fit, 1:1 model
sFGFR3_Del4-D3 [11] = target: B2; test: SPR (Biacore T200), immobilised sFGFR3_Del4-D3, steady state

B1
koff (sFGFR3_Del4-D3 [1]): 0.0055 s⁻¹ | kon (sFGFR3_Del4-D3 [2]): 258 M⁻¹ s⁻¹ | Kd (sFGFR3_Del4-D3 [3]): 28000 nM | kd2 (sFGFR3_Del4-D3 [4]): 0.0014 s⁻¹

B2
koff (human FGF9 [5]): 0.026 s⁻¹ | kon (human FGF9 [6]): 2.3e+06 M⁻¹ s⁻¹ | Kd (human FGF9 [7]): 1.8 nM | Kd (human FGF9 [8]): 3.6 nM

B3
kon (sFGFR3_Del4-D3 [9]): 200000 M⁻¹ s⁻¹ | Kd (sFGFR3_Del4-D3 [10]): 4.5 nM | Kd (sFGFR3_Del4-D3 [11]): 6.4 nM
